In the data set the target is T1, Recombinant murine APRIL (Sigma SRP3189-20UG), Q9D777.
T1 chain: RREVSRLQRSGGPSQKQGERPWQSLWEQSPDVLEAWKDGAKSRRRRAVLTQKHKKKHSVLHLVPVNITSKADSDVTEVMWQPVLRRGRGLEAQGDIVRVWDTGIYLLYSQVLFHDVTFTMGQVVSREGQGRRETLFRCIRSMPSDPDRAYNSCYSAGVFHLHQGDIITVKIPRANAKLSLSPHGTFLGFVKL

B1: plant produced recombinant human Furin (truncated form, pEAQ-Furin (truncated)-His6-KDEL, produced in N. benthamiana) (protein)
chain: QGQKVFTNTWAVRIPGGPAVANSVARKHGFLNLGQIFGDYYHFWHRGVTKRSLSPHRPRHSRLQREPQVQWLEQQVAKRRTKRDVYQEPTDPKFPQQWYLSGVTQRDLNVKAAWAQGYTGHGIVVSILDDGIEKNHPDLAGNYDPGASFDVNDQDPDPQPRYTQMNDNRHGTRCAGEVAAVANNGVCGVGVAYNARIGGVRMLDGEVTDAVEARSLGLNPNHIHIYSASWGPEDDGKTVDGPARLAEEAFFRGVSQGRGGLGSIFVWASGNGGREHDSCNCDGYTNSIYTLSISSATQFGNVPWYSEACSSTLATTYSSGNQNEKQIVTTDLRQKCTESHTGTSASAPLAAGIIALTLEANKNLTWRDMQHLVVQTSKPAHLNANDWATNGVGRKVSHSYGYGLLDAGAMVALAQNWTTVAPQRKCIIDILTEPKDIGKRLEVRKTVTACLGEPNHITRLEHAQARLTLSYNRRGDLAIHLVSPMGTRSTLLAARPHDYSADGFNDWAFMTTHSWDEDPSGEWVLEIENTSEANNYGTLTKFTLVLYGTAPEGLPVPPESSGCKTLTSSQAHHHHHHKDEL
Take B1: the “in vitro cleavage of 5 µg APRIL by 25 ng Furin, 25° C., 1 h, SDS-PAGE” value is “recombinant APRIL protein is cleaved by both plant produced human Furin (25ng) or commercial Furin (25 ng) and 16.8 kDa fragment was generated”.
